Assay results published in the nanobody polyreactivity screen of Harvey et al. (2022).

Assay: yeast display, Sf9 membrane polyspecificity reagent, FACS + sequencing; frameworks hold sequencing errors
In short: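 Polyreactivity labels are assigned by the sorting gate from which each nanobody was recovered. The gates were low and high (top ~1%), set on anti-HA fluorescence for expression and streptavidin fluorescence for reagent binding. Before sorting, galactose-induced (36–48 hours) yeast display cells were stained for 1 hour at 4 °C with 10% biotinylated, detergent-solubilized Sf9 membrane reagent.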

| Sequence | polyreactivity (PSR sort gate) |
| --- | --- |
| QVQLVESGGGLVQAGGSLRLSCAASGITFVRNAKGWYRPAPGTERELVAAISSGGSTYYADSVKGRFTISRDNAKNTVYLQMNSLKPEDTAVYYCAVLSSWRFSGYDYWGQGTQVTVSS | low polyreactivity |
| QVQLLETCGGLVHAGCTLRLSCAPSRSTFRYNDMGRYRQAPGKERELDASISWSGGDTYYADSVKGRFTISRDNAKNTVYLQMNSLKPEDTAVYYCDKGNIWISRLMDDWGQGTQVTVSS | low polyreactivity |
| QVQLVESGGGLVQAGGSLRLSCAASGRIFVKYSMGWYRQAPGKERELVAAISKSGGSTYYADSVKGRFTISRDNAKNTVYLQMNSLKPEDTAVYYCATRSRDQYSVSYRLDYWGQGTQVTVSS | low polyreactivity |
| QVQLVESGGGLVQAGGSLRLSCAASGRIFSYYDMGWYRQAPGKEREFVAGITWNGGSTYYADSVKGRFTISRDNAKNTVYLQMNSLKPEDTAVYYCAAGVWRTRDWTYYYWGQGTQVTVSS | high polyreactivity |
| QVQLVESGGGLVQAGGSHRLSCAASGSTFNYYAMGWYRQAPGKERELVAAISRGGSTYYADSVKGRFTISRDNAKNTVYLQMNSLKPEDNAVYYCHARPTRIYHGMGFWGQGTQVNVSS | low polyreactivity |
| QVHLVESGGGLVQAGGSLRLSCAASGRTFYVYAMGWYIQAPGKERELVATITSRGGRTYYADSVKGRFTISRDNAKNTVYLQMNSLKPEDTAVYYCNAAWWKVSYVRQKYYYWGQGTQVTVSS | high polyreactivity |
| QVQLVESGGGLVQAGGSLSLSCGASGRIFSLYAMGWYRQAPGKERELVAAMSWGAGSTYYADSVKGRFTISRDNAKNTVYLQMNSLKREATAVYYCATGRRYYYPYASYLKYGYWGQGTQVTVSS | high polyreactivity |
| QVQLVESGGGLVQAGGSLRLSCAASGRNITANAMGWYRQAPGKEREFVAAINVSGGSTYYADSVKGRFTISRDNAKNTVYFQMNSLKPEDTAVYYCNADYYYYDIYWWQMDYWGLGTQVTVSS | low polyreactivity |
| QVQLVESGGGLVQAGGSLRLSCAASGSIFDSNAMGWYRQAPGKERELVAAINRSDASTYYADSVKGRFTISRDNAKNTDYLQMTSPQPEGTAVYYCGVEVYVYNVHIYDYWGQGTQVTVSS | low polyreactivity |
| QFQLVESGGGLDQAGGSLRLSCAASGSIFSYYDMGGDRQAPGKDRELVAGNSRGGSTNYADSVKGRFTISRDNAKKTVYLQMNSLKPEDTAVYYCNADQSSRTYPFRLSRRSWLYGYWGQGTQVTVSS | low polyreactivity |
| QVQLVESGGALVQAGGSLRLSCAASGSTLAYNAMGWYRQAPGKERELVAGIRGSGGSTYYADSVKGRFTISRDNAKNTVYLQMNSLKPEDTAVYYCNADSSVGHPPDGEYWGQGTQVTVSS | low polyreactivity |
| QVQLVESGGGLVQAGGRLRLSCAASGRTFVQYAIAWYRQAPGKEREFVAAISSRVGSTYYADSVKGRFTISRDNAKNTVYLQMNSLKPEDTAVYYCNRDLVPRFDYWGQGTQVTVSS | low polyreactivity |
| QVQLVESGGGLVQAGGSLRLSCAASGRIFRYNALGWYRQAPGKERELVAAITWNGASTFYADSVKGRFTISRDNAKNTVYLQMNSLKPEDTAVYYCATVRDISGYLYWSYNLYDYWGQGTQVTVSS | high polyreactivity |
| QVQLVESGGGLVQAGGSLRLSCAASGRIFGSNTLGWYRQAPGKEREMVAAISRRGGSTYYADSVKGRFTISRDNAKNTVYLQINSLKPEDTAVYYCAAVGTGSSLRYDYWGQGTQVTVSS | high polyreactivity |
| QVQLVESGGGLVQAGGRLRLSCAASGITFQPNAMGWYRQAPGKERELVARITRGGGRTYYADSVKGRFTISRDNAKNTVYLLMHSLKPEDTAVYYCAADYSYIYGFDYWGQGTQVTVSS | low polyreactivity |
| QVQLVESGGGLVQAGGSLRVSCAASGSIFSIYAMGWYRQAPGKERELVASITRSSGRTYYADSVKGRFTISRDNAKKTVYLQMNSLKPEDTAVYYCAKDYIPLALDADDYWGQGTQVSVSS | low polyreactivity |
| QVQLVESGGGLVQAGGSLRLSCSASGSTFRWNAMGWYRQAPGKERELVASITSGGSTNYADSVKGRFTMSRDNAKNTVYLQLNSLKPEDTAVSYCNADVRRYSNYVWLYDYWGQGTQVTVSS | low polyreactivity |
| QVQLVESGGGLVQAGGSLRLSCAASGNTFTWYTMGWYRQAPGKERELVAGITWSGGSTFYADSVKGRFTISRDNAKNTVYLQMNSLKPEDTAVYYCAVSTEVNRYHAKYDYWGQGTQVTVSS | low polyreactivity |
| QVQLVESGGGLVQAGGSLRLSCAASGSIFSYYAMGWYRQAPGKERELVAAISKRGASTYYADSVKGRFTISRDIAKNTVYLQMNSLKPEDTAVYYCAGYRQGSAYDYWGQGTQVTVSS | high polyreactivity |
| QVQLVESGGGLVQAGGSLRLSCAASGRIFFRYAMGWYRPAPGKEREFVAAISGSAGSTYYADSVKGRFKISRDNAKNTVYLQMNSLKPEDTAVYYCAARKAKVSNGLKYDYWGQGTQVTVSS | high polyreactivity |
| QVQLVESGGGLVQAGGSLRLSCAASGRIFVYNAMGWYRQAPGKERELVAAINSGDSTYYADSVKGRFTISRDNAKNTVYLQMNSLKPEDTAVYYCAADIHYYPGYLAYDYWGQGTQVTVSS | low polyreactivity |
| QVQLVESGGGLVQAGGSLRLSCDASGITFYSYAMGWYRQAPGKEREFVAAITRGGGITSYADSVKGRFTISRDNAKNTVYLQMNSLKPEDTAVYYCAVYTYHYGRSTYYKYDYWGQGTQVTVSS | high polyreactivity |

| Sequence | polyreactivity (PSR sort gate) |
| --- | --- |
| QVQLVESGGGLVQAGGSLRLSCASSGGIFYSYDMGWYRQAPGKERELVAAITWIGGSTYYADSVKGRFTISRDNAKNTVYFQMNSLKPEDTAVYYCAAEILWGGYDYWGQGTQVSVSS | low polyreactivity |
| QVQLVESGGGLVQAGGSLRLSCAASGLIFAGYAKGWYRQAPGKERELVAAISTSGGRTYYADSVKGRFTISRDNAKNTVYLQMNSLKPEDTAVYYCAAYPVHGKTQELAKEDYWGQGTQVTVSS | high polyreactivity |
| QVQLVESGGGLVQAGGSLRLSCAASGSTFTTYVMGWYRQAPGKERELVAAISRRGGRTYYADSVKGRFTISRDNAKNTVYLQMNSLKPEDTAVYYCNKVYPTYYYYRGGPTEYDYWGQGTQVTVSS | high polyreactivity |
| QVQLVESGGGLVQAGGSLRLSCAASGFTFGRKALGWYRQAPGKERELVAAISSSEHFYVRRLLKGRFTISRENAKNTVYLQMNSLKPEDTAVYYCATDNSGEVEYWGQGTQVTVSS | high polyreactivity |
| QVQLVESGGGLVQAGGSLRLSCAASGSIFEYYAMGWYRQAPGKERELVAAISSGGPTYYADSVKGRFTISRDNAKNTVYLQMNSLKPEDTAVYYCNADLWYPDYDYWGQGTQLTVSS | low polyreactivity |
| QVQLVDSGGGLVQAGGSLRLSCAASGGILKCYYMGRYRQATGKEMEFVSPITWSAGSTYYADSVKGRFTISRDNAKNTVYLQMNSLKPEDTAVHYCNVDWYPRGPHTVVFYDVSPYDYWGQGTQVTVSS | high polyreactivity |
| QVQLVESGGGLVQAGGSLRLSCAASGRTFWTYTLGWYRQAPGKEREFVAAITFGDGSTSYADSVKGRFTISRDNAKNTVYLQMNSLKPEDTAVYYCAAADQVGQEDDYWGQGTQVTVSS | low polyreactivity |
| QVQLVESGGGLVQAGGRLRLRCAASGFIFSIYTMGWYRQAPGKERELVAAISWSGGSKYYADSVKGRFTISRDNAKNTVYLQMNSLKPEDTAVYYCNRVQFSPVYRFREYDYWGQGTQVTVSS | high polyreactivity |
| QDQLVESAGGLVQAGGSLRLSCAATGLNLVPNTMGLYRQAPGKETQLVAAISYSGGGTYYADSVKGRFTISRDNAKNTVYLQMNSLKPEDTAVYYCAAYVKREYAPYGYWGQGTQVTVSS | low polyreactivity |
| QVQLVESGGGLVQAGGSLRLSSAASGRIFRYYAMGWYSQAPGKERELVAAISWSGGNSYYADSVKGRFTISRDNAKNTVYLQMNSLKTEDTAVYYCNAYYLPSRYDYWGQGTQVTVSS | high polyreactivity |
| QVQLVESGGGLVQAGGSLRLSCAASGITFPLYAMGWYRQAPGKERELVASITRGGTTNYADSVKGRFTISRDNAKNTVYLQMNSLKPEDTAVYYCAAVVTRERGYDYWGQGTQVTVSS | low polyreactivity |
| QVQLVESGGGLVQAGGSLRLSCAASGRTFHYNAMGWYRQAPGKERELVAAITRSGGSTYYADSVKGRFTISRDNAKNTVYLQMNSLKPEDTAVYYCNAAYLHPGPFDYWGQGTQVTVSS | low polyreactivity |
| QVQLVESAGGLVQAGGSLRLSCAASGRILPSNAMGWYRQAPGKERELVAGITSGGSTDYADSVKGRFTISRDNAKNTVYLQMNSLKPEDTGVFYCAADSRRYGVRFDYWGQGTQVTVSS | low polyreactivity |
| QVQLVESGGGLVQAGGSLRLSCAASGSIFYYYTMGWYRPAPGKERELVASITGGGSTYYADSVKGRFTISRDNAKNTVYLQMNSLKPDDTAVYYCAAYRYGVTNAYGYWGQGTQVTVSS | high polyreactivity |
| QVQLVESGGGLVQAGGSLRLRCAASGSIFPPYAMGWYRQAPGKERELVAVISFSSGRTYYADSVKGRFTISRDNAKNTVYLQMNSQKPEDTAVYYCAADYESRNKFDYWGQGTQVTVTS | low polyreactivity |
| QVQLVESGGGLVQAGGSLRLSCAASGSTFRYNAMGWYRQAPGKERELVATITSGGYTNYADSVKGRFTISRDNAKNSVYLQMNSLKPVDSAVYYCATDSLFRTYVEWDRKFDYWGQGTQVTVSS | high polyreactivity |
| QVQLVESGGPLVQAGGSLRLICAASGRTFYYNAKGWYRQAPGKDRELVAAITWSGGGTYYADSVKGRFTISRDNAKNTDYLQMNSLKPEDTAFYYCAAEDWSIEYEYWGQGTQVTVSS | high polyreactivity |
| QVQLEESGGGLVQAAGRLRVSCAASGYIYGYAMGWYKQAPAKEMELVAAITRGGGRTYYADSVKGRFTISRDNAKNTVYFQMHSLKPVDTAVYYCAVAANRGKGFYEYYHWGQGTQVTVSS | high polyreactivity |
| QVQLVESGGGLVQAGGSLRLSCAASGSTFPKYAMGWYRQAPGKERELVAGISWRGGRTYYADSVKGRFTISRDNAKNTVYLQMNSLKPEDTAVYYCATDYYAFNQGEVKWYDYWGQGTQVSVSS | high polyreactivity |
| QVQLVESGGGLVQAGGSLRLSCAASGFIYDYAMGWYRQAPGKEREFVARINWSGGSTYYADSVKGRFTISRDNAKNTVYLQMNSLKPEDTAVYYCATSGWAWRSSNPYEYWGQGTQVTVSS | low polyreactivity |
| QVQLVESGGGLVQAGGSLRLSCAASGITFGRYAMGWYRQAPGKERELVAAISSRTGRTYYADSVKGRFTISRDNAKNTVYLQMNSLKPEDTAVYYCARDSKLSASYDRDDSWGQGTQVTVSS | high polyreactivity |
